Experimental data from publication doi:10.1101/2023.04.06.535920 (bioRxiv, 2023).

Target: T1, Fc-tagged recombinant mouse FGL1 full length (mouse, UniProt Q71KU9 23-314)
T1 sequence (looked up): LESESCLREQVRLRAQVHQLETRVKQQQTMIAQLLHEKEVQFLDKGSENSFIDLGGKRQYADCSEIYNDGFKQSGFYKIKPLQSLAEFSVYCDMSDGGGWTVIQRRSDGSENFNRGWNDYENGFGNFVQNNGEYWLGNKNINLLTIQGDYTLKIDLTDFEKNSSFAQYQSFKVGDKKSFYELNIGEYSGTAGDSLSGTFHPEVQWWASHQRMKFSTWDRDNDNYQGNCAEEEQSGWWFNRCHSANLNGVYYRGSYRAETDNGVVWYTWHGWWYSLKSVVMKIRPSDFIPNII
Assay: pull-down

binding result: binds
B1: hBMP6 (ligand, human, UniProt P22004 375-513, looked up)
chain: SASSRRRQQSRNRSTQSQDVARVSSASDYNSSELKTACRKHELYVSFQDLGWQDWIIAPKGYAANYCDGECSFPLNAHMNATNHAIVQTLVHLMNPEYVPKPCCAPTKLNAISVLYFDDNSNVILKKYRNMVVRACGCH
